Experimental data published in patent publication US20250170227A1.
pIC50: −log10 of the molar value. Each block holds one substance with its values, some of them ahead of it.

What was measured:
C1s [1] = assay: C1s activity inhibition
C1s [2] = assay: C1s activity inhibition; 10x periodate
C1s [3] = assay: C1s activity inhibition; 20x periodate
C1s [4] = assay: C1s activity inhibition; 40x periodate

pIC50 (C1s [1]): 8.83
Substance: Cinryze

pIC50 (C1s [2]): 8.84
Substance: Cinryze-5k-10x

pIC50 (C1s [3]): 8.65
Substance: Cinryze-5k-20x

pIC50 (C1s [4]): 8.57
Substance: Cinryze-PEG5k-40x
